In PMC5500506:

system: T1, GdmRIII (Streptomyces autolyticus CGMCC0516), ORF:755639c7; test: EMSA; settings: EMSA: 10 mM Tris-HCl pH 7.5, 50 mM NaCl, 10 mM MgCl2, 1 mM EDTA, 1 mM DTT, 5% glycerol, 0.1 ug/ul poly(dI-dC), 0.3 nM DNA; temperature not given
T1 sequence: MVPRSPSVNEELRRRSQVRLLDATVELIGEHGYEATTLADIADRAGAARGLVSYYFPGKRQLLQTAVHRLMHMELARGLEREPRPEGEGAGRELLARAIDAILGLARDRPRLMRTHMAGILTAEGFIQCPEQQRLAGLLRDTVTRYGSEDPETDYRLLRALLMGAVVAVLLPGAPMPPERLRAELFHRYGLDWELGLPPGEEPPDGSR

binding, binds:
AGGAGCTGCCCGACTGGCGGTCCTTCTGGGAGCTGCCGCACGACATCGTCGATGTGCGCGGCAACCACTTCACCATGATGGAGGACCACTCCCTCCCCACCGCCCAGGCCATCGAGGACTGGCTGGAGCGACT (double strand) [elaF promoter]
GCGACGTCCACCGCCGTCTCCTTCCCGCTCATTCGCCCGCCAGGATCAGATCGACCGTGTCCTGGAACTCGTCCGCCTTCACCAGCACCTTGGTGCGCTCCACCCCGTCCTCGACGGTGAAGCAGCGCCTGCCGATCAGCACGATCTTTCCGTTGTCCGTGGCCCGGCTGCGGAAGGTGGTCCCGGCGAGCACCGAGTCCTGTGCGTAGTCGTCCAGGCTGTCCAGCCGCACCGCGTCCCAGCCGGACGGGTCGGCCAGCTCCGGCCGGAACCGGTACACCGGCTGCCAGCCGCTCTC (double strand) [gdmM promoter]
GCTCACCGACCCCGCGCACGAGGTGCTGGTCATCACGATGGCCGACCGGTTCGGCCCGCACGGCGCCGTCGGCATCGTGCTGCTGGAACGCCACCCGGCGGTGTGGCATCTGAAACTGCTCGCCACCTCCTGCCGTGTGGTCTCCTACGGCGCCGGGTCCACCCTGCTGAACTGGCTGGCCGACCAGGCGGCGCGTGCCGGGGTGCATCTGGCCGCCGACTTCCGGCGCACCGACCGCAACCGGATGATGGAGGTCGCCTACCGCTTCGCCGGGTTCGCCGACGCCGACTGCGCCTGCAC (double strand) [gdmN promoter]
